The source of these data is paper PMC4643140, “Low-Temperature-Induced Expression of Rice Ureidoglycolate Amidohydrolase is Mediated by a C-Repeat/Dehydration-Responsive Element that Specifically Interacts with Rice C-Repeat-Binding Factor 3”.

This series has as its target GST-OsCBF3 (Oryza sativa (rice), UniProt Q64MA1 1-238). Briefly: EMSA; 20 fmol probe, 1 ug protein; unlabeled E2 (2 pmol) competes; 20 uL reactions, Light-Shift Chemiluminescent EMSA Kit per manufacturer; buffer, salt, pH and temperature not stated. Particulars: protein: recombinant; tags: N-terminal GST (pGEX-4T-1); label: biotin on probe; blunt. (In EMSA bound probe runs differently from free probe, usually more slowly.)

Chain of GST-OsCBF3 (Q64MA1 whole entry): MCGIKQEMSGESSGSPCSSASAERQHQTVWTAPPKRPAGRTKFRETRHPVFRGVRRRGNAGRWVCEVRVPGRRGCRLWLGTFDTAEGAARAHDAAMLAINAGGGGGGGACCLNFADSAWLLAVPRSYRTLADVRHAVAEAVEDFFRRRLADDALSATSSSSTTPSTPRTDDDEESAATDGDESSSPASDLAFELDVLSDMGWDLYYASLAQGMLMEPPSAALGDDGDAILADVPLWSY

B1: E2 (dsDNA)
DNA 1: AGCGTAGCTGCGGCGGAGAGCTCGCCGCCGACCCGCCCGGAGATTGGTTGCTTGCGCTG
DNA 2: CAGCGCAAGCAACCAATCTCCGGGCGGGTCGGCGGCGAGCTCTCCGCCGCAGCTACGCT
As to B1, the binding result is “binds”.
